# Experimental data taken from the supplement of paper PMC9428881.
# ± gives the standard error.
# Experiment: background-corrected fluorescence of 3'-dye-labeled ssDNA relative to brightest sequence (3'-GCGCG) (fraction); higher = brighter dye fluorescence (less quenching)
# Conditions: dye: Cy5 (3' terminal)
# Procedure: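 Single-stranded DNA is synthesized in situ on glass microarrays by 5'->3' photolithographic synthesis, with a Cy3 or Cy5 phosphoramidite coupled at the 3' end next to all 1024 permuted pentamers P1-P5. The construct is 5'-T5-(ACGT minus P5..P1 trinucleotides)-T15-P5P4P3P2P1-dye-3'; the dye is a 3' terminal modification, not part of the sequence. Arrays were scanned at 532 nm (Cy3) or 635 nm (Cy5), background from unlabeled oligos was subtracted, and values are averaged over 10 replicate features per array and at least 3 independent syntheses.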
row,Sequence,background-corrected fluorescence
1,TTTTTGCATGCGCATCATGATTTTTTTTTTTTTTTTATGC [CGTAT],0.377 ± 0.024
2,TTTTTGCATGCGCATCATGCTTTTTTTTTTTTTTTTATGA [AGTAT],0.579 ± 0.047
3,TTTTTGCATGCGCATGAGCATTTTTTTTTTTTTTTTATCT [TCTAT],0.33 ± 0.017
4,TTTTTGCATGCGCATGATCATTTTTTTTTTTTTTTTATCG [GCTAT],0.402 ± 0.031
5,TTTTTGCATGCGCATGATGATTTTTTTTTTTTTTTTATCC [CCTAT],0.285 ± 0.019
6,TTTTTGCATGCGCATGATGCTTTTTTTTTTTTTTTTATCA [ACTAT],0.407 ± 0.053
7,TTTTTGCATGCGCATGCGCATTTTTTTTTTTTTTTTATAT,0.405 ± 0.037
8,TTTTTGCATGCGCATGCTCATTTTTTTTTTTTTTTTATAG [GATAT],0.418 ± 0.032
9,TTTTTGCATGCGCATGCTGATTTTTTTTTTTTTTTTATAC [CATAT],0.333 ± 0.035
10,TTTTTGCATGCGCATGCTGCTTTTTTTTTTTTTTTTATAA [AATAT],0.441 ± 0.069
11,TTTTTGCATGCTCAGCAGCATTTTTTTTTTTTTTTTAGTT [TTGAT],0.411 ± 0.032
12,TTTTTGCATGCTCAGCATCATTTTTTTTTTTTTTTTAGTG [GTGAT],0.455 ± 0.053
13,TTTTTGCATGCTCAGCATGATTTTTTTTTTTTTTTTAGTC [CTGAT],0.363 ± 0.023
14,TTTTTGCATGCTCAGCATGCTTTTTTTTTTTTTTTTAGTA [ATGAT],0.491 ± 0.042
15,TTTTTGCATGCTCATCAGCATTTTTTTTTTTTTTTTAGGT [TGGAT],0.543 ± 0.033
16,TTTTTGCATGCTCATCATCATTTTTTTTTTTTTTTTAGGG [GGGAT],0.55 ± 0.037
17,TTTTTGCATGCTCATCATGATTTTTTTTTTTTTTTTAGGC [CGGAT],0.464 ± 0.026
18,TTTTTGCATGCTCATCATGCTTTTTTTTTTTTTTTTAGGA [AGGAT],0.617 ± 0.032
19,TTTTTGCATGCTCATGAGCATTTTTTTTTTTTTTTTAGCT [TCGAT],0.42 ± 0.035
20,TTTTTGCATGCTCATGATCATTTTTTTTTTTTTTTTAGCG [GCGAT],0.494 ± 0.055
21,TTTTTGCATGCTCATGATGATTTTTTTTTTTTTTTTAGCC [CCGAT],0.311 ± 0.015
22,TTTTTGCATGCTCATGATGCTTTTTTTTTTTTTTTTAGCA [ACGAT],0.447 ± 0.024

row,Sequence,background-corrected fluorescence
1,TTTTTGCATGCTCATGCGCATTTTTTTTTTTTTTTTAGAT,0.463 ± 0.02
2,TTTTTGCATGCTCATGCTCATTTTTTTTTTTTTTTTAGAG [GAGAT],0.477 ± 0.059
3,TTTTTGCATGCTCATGCTGATTTTTTTTTTTTTTTTAGAC [CAGAT],0.369 ± 0.015
4,TTTTTGCATGCTCATGCTGCTTTTTTTTTTTTTTTTAGAA [AAGAT],0.533 ± 0.052
5,TTTTTGCATGCTGAGCAGCATTTTTTTTTTTTTTTTACTT [TTCAT],0.358 ± 0.039
6,TTTTTGCATGCTGAGCATCATTTTTTTTTTTTTTTTACTG [GTCAT],0.373 ± 0.027
7,TTTTTGCATGCTGAGCATGATTTTTTTTTTTTTTTTACTC [CTCAT],0.273 ± 0.018
8,TTTTTGCATGCTGAGCATGCTTTTTTTTTTTTTTTTACTA [ATCAT],0.388 ± 0.028
9,TTTTTGCATGCTGATCAGCATTTTTTTTTTTTTTTTACGT,0.482 ± 0.038
10,TTTTTGCATGCTGATCATCATTTTTTTTTTTTTTTTACGG [GGCAT],0.514 ± 0.04
11,TTTTTGCATGCTGATCATGATTTTTTTTTTTTTTTTACGC [CGCAT],0.439 ± 0.032
12,TTTTTGCATGCTGATCATGCTTTTTTTTTTTTTTTTACGA [AGCAT],0.491 ± 0.031
13,TTTTTGCATGCTGATGAGCATTTTTTTTTTTTTTTTACCT [TCCAT],0.345 ± 0.023
14,TTTTTGCATGCTGATGATCATTTTTTTTTTTTTTTTACCG [GCCAT],0.439 ± 0.027
15,TTTTTGCATGCTGATGATGATTTTTTTTTTTTTTTTACCC [CCCAT],0.276 ± 0.019
16,TTTTTGCATGCTGATGATGCTTTTTTTTTTTTTTTTACCA [ACCAT],0.364 ± 0.02
17,TTTTTGCATGCTGATGCGCATTTTTTTTTTTTTTTTACAT,0.382 ± 0.025
18,TTTTTGCATGCTGATGCTCATTTTTTTTTTTTTTTTACAG [GACAT],0.413 ± 0.03
19,TTTTTGCATGCTGATGCTGATTTTTTTTTTTTTTTTACAC [CACAT],0.312 ± 0.014
20,TTTTTGCATGCTGATGCTGCTTTTTTTTTTTTTTTTACAA [AACAT],0.433 ± 0.059
21,TTTTTGCATGCTGCGCAGCATTTTTTTTTTTTTTTTAATT,0.377 ± 0.027
22,TTTTTGCATGCTGCGCATCATTTTTTTTTTTTTTTTAATG [GTAAT],0.363 ± 0.023

row,Sequence,background-corrected fluorescence
1,TTTTTGCATGCTGCGCATGATTTTTTTTTTTTTTTTAATC [CTAAT],0.303 ± 0.015
2,TTTTTGCATGCTGCGCATGCTTTTTTTTTTTTTTTTAATA [ATAAT],0.458 ± 0.047
3,TTTTTGCATGCTGCTCAGCATTTTTTTTTTTTTTTTAAGT [TGAAT],0.493 ± 0.031
4,TTTTTGCATGCTGCTCATCATTTTTTTTTTTTTTTTAAGG [GGAAT],0.518 ± 0.045
5,TTTTTGCATGCTGCTCATGATTTTTTTTTTTTTTTTAAGC [CGAAT],0.417 ± 0.029
6,TTTTTGCATGCTGCTCATGCTTTTTTTTTTTTTTTTAAGA [AGAAT],0.589 ± 0.024
7,TTTTTGCATGCTGCTGAGCATTTTTTTTTTTTTTTTAACT [TCAAT],0.353 ± 0.027
8,TTTTTGCATGCTGCTGATCATTTTTTTTTTTTTTTTAACG [GCAAT],0.426 ± 0.037
9,TTTTTGCATGCTGCTGATGATTTTTTTTTTTTTTTTAACC [CCAAT],0.278 ± 0.021
10,TTTTTGCATGCTGCTGATGCTTTTTTTTTTTTTTTTAACA [ACAAT],0.405 ± 0.033
11,TTTTTGCATGCTGCTGCGCATTTTTTTTTTTTTTTTAAAT,0.454 ± 0.038
12,TTTTTGCATGCTGCTGCTCATTTTTTTTTTTTTTTTAAAG [GAAAT],0.397 ± 0.021
13,TTTTTGCATGCTGCTGCTGATTTTTTTTTTTTTTTTAAAC [CAAAT],0.336 ± 0.028
14,TTTTTGCATGCTGCTGCTGCTTTTTTTTTTTTTTTTAAAA [AAAAT],0.52 ± 0.028
15,TTTTTTCAGCAGCAGCAGCATTTTTTTTTTTTTTTGTTTT,0.368 ± 0.021
16,TTTTTTCAGCAGCAGCATCATTTTTTTTTTTTTTTGTTTG,0.33 ± 0.029
17,TTTTTTCAGCAGCAGCATGATTTTTTTTTTTTTTTGTTTC [CTTTG],0.306 ± 0.036
18,TTTTTTCAGCAGCAGCATGCTTTTTTTTTTTTTTTGTTTA [ATTTG],0.403 ± 0.022
19,TTTTTTCAGCAGCATCAGCATTTTTTTTTTTTTTTGTTGT,0.494 ± 0.027
20,TTTTTTCAGCAGCATCATCATTTTTTTTTTTTTTTGTTGG [GGTTG],0.471 ± 0.028
21,TTTTTTCAGCAGCATCATGATTTTTTTTTTTTTTTGTTGC [CGTTG],0.389 ± 0.025
22,TTTTTTCAGCAGCATCATGCTTTTTTTTTTTTTTTGTTGA [AGTTG],0.548 ± 0.046
